Values of other authors in patent EP0259891B1, “[Leu 13] motilin, DNAs coding for same and methods for producing same” (KYOWA HAKKO KOGYO CO., LTD., priority 1986, dated 1995).

Details: 13th amino acid Met oxidised; M. Fujino et al., Chem. Pharm. Bull., 26, 101 (1978)

## motilin: physiologically active peptide occurring in the mammalian blood, composed of 22 amino acid residues, 13th amino acid Met
  motilin activity after oxidation of Met to the sulfoxide form: decreased motilin activity
